Reference: patent US20180303898A1 (SANFORD BURNHAM PREBYS MEDICAL DISCOVERY INSTITUTE, published 2018)
Bridges are numbered along the chain shown (N, C = ends). Where no end group is shown, it is not given here. FAM = 5(6)-carboxyfluorescein; Ahx = NCCCCCC(=O)O

T1: recombinant 6x-His-tagged p32 protein (p32/p33/gC1qR/HABP1) (UniProt Q07021 74-282)
T1 construct: not shown: 6x-His tag
T1 sequence (looked up): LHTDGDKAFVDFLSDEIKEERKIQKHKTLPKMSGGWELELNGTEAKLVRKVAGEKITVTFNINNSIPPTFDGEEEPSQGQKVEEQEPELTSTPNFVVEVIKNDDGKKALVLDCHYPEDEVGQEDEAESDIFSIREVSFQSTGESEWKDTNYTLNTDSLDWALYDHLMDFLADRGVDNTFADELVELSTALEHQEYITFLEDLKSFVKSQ

T2: b1b2 domain of neuropilin-1 (NRP-1), recombinant (UniProt O14786 273-586, limits assumed)
T2 construct: domain: b1b2 domain; also called NRP-1 b1b2; b1b2 domain of NRP-1
T2 sequence (looked up): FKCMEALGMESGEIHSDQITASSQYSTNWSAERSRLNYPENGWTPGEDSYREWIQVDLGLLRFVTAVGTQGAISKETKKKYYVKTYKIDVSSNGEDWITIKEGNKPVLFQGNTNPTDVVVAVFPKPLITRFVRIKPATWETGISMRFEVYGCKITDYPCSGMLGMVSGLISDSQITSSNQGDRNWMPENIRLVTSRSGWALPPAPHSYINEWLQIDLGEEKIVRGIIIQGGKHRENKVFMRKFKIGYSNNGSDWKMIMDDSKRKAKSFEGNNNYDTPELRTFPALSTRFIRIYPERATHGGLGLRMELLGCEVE


Assays:
[1] = target: T1, recombinant 6x-His-tagged p32 protein …; test: fluorescence polarization, FAM-labeled peptide constant, p32 titrated (FIG. 2A)
Description: FIGS. 2A-2D are graphs showing FP- and phage binding-based validation of p32 binding peptides and hit compounds. […] Measurements were performed with PheraStar FS plate reader (BMG Labtech, Ortenberg, Germany) on 384-well plate. […] (C) Assessment of hit compound binding to a non-target secondary protein, NRP-1, to determine the specificity of the hit compounds in FP assay. A known NRP-1 binding peptide, RPARPAR (SEQ ID NO:18), was used as a control. (D) Effect of the hit compounds on the TT1 phage binding to p32 protein. TT1 phage binding to p32 in the presence of 100 μM hit compounds was determined in ELISA-type of binding assay. Each data point presents average±S.D., n=4.
The assay was initially set up in 20 μl well volume in 384 well plate (Corning Life Sciences), and measurements were carried out using PheraStar FS plate reader (BMG LABTECH, Ortenberg, Germany) in quadruplicate. […] Optimal concentration of fluorescein (FAM) labeled-peptides for the assay was determined by measuring the limit of detection (LOD), signal-to-background ratio (S/B), and stability of mP value over series of peptide concentrations. In the binding assay, the concentration of FAM-peptide was kept constant, and the FP was measured over the range of target protein concentrations. […]

[2] = target: T2, b1b2 domain of neuropilin-1 (NRP-1), …; test: fluorescence polarization, recombinant b1b2 domain of NRP-1
Description: FIG. 8 is a graph showing specificity of TT1 binding. Specificity of TT1 was further evaluated by measuring the binding of FAM-TT1 to recombinant non-target protein, b1b2 domain of neuropilin-1 (NRP-1). The binding was studied by fluorescence polarization. […] Each data point presents average±S.D., n=4-6.
(§1) The assay was initially set up in 20 μl well volume in 384 well plate (Corning Life Sciences), and measurements were carried out using PheraStar FS plate reader (BMG LABTECH, Ortenberg, Germany) in quadruplicate. Peptide and protein stock solutions were diluted to desired concentration with assay buffer (50 mM BIS-TRIS pH 7.4, 0.05% Tween20, 1 mM DTT). FAM-labeled peptides were protected from light during the experiment to avoid photobleaching. Optimal concentration of fluorescein (FAM) labeled-peptides for the assay was determined by measuring the limit of detection (LOD), signal-to-background ratio (S/B), and stability of mP value over series of peptide concentrations. In the binding assay, the concentration of FAM-peptide was kept constant, and the FP was measured over the range of target protein concentrations. The peptide dissociation constant (KD) was obtained by fitting the binding curve into Michaelis-Menten kinetics in GraphPad Prism-software (GraphPad Software, Inc., CA, USA). […]

[3] = target: T1, recombinant 6x-His-tagged p32 protein …; test: fluorescence polarization, FAM-TT1 constant, p32 titrated, in BIS-TRIS buffer
Description: FIG. 6 is a graph showing the effect of buffer solution on interaction of TT1 and p32. The binding affinity of FAM-labeled TT1 to p32 was studied in different assay buffers: in PBS, HEPES, and BIS-TRIS, respectively. The binding was measured by fluorescence polarization (FP) and observed as increased FP value. Binding constants (KD) were calculated by fitting the binding curves into Michaelis-Menten kinetics. Each data point presents average±S.D., n=4-6.
as §1, with “concentrations.” for “concentrations. The peptide dissociation constant (KD) was obtained by fitting the binding curve into Michaelis-Menten kinetics in GraphPad Prism-software (GraphPad Software, Inc., CA, USA).”

| Kd [1] | binding result [2] | Kd [3] | Binder |
| --- | --- | --- | --- |
| 23 µM |  |  | {FAM-Ahx}-CGNKRTRGC (disulfide 1-9 (inferred), also called FAM-LyP-1) [FAM-labeled LyP-1 peptide (CGNKRTRGC)] |
|  | no binding | 2.3 µM | {FAM-Ahx}-CKRGARSTC (disulfide (positions not given here); not fully specified (bridges); also: cyclic peptide, ring type not given here, Synthetic fluorescent peptide used as the probe in the fluorescence polarization assays; also called FAM-TT1; FAM-TT-1) [FAM-labeled TT1 peptide (CKRGARSTC)] |
